Test results published in PMC8897410.

Columns and labels:
FimU Lp = FimU Lp (Legionella pneumophila, UniProt Q5ZXU9 96-235); assay: EMSA; up to 100 uM protein; 50 mM Tris-HCl pH 7.2, 50 mM NaCl; […]; ITC 30 C; MST 50-150 mM NaCl, 0.05% Tween-20, […]; conditions: protein: recombinant; tags: His6-SUMO cleaved; blunt
PilA1 Lp = PilA1 Lp (Legionella pneumophila, UniProt Q5ZU93 35-142); assay: as above; conditions: protein: recombinant; tags: His6 cleaved (PreScission); blunt
PilA2 Lp = PilA2 Lp (Legionella pneumophila, UniProt Q5ZU92 34-140); assay: as above; conditions: protein: recombinant; tags: His6 cleaved (PreScission); blunt
FimT Lp [1] = molecular target: T1, FimT Lp (Legionella pneumophila, UniProt Q5ZVL2 38-162); assay: EMSA; Kd stated as low uM range; 50 mM Tris-HCl pH 7.2, 50 mM NaCl; […]; ITC 30 C; MST 50-150 mM NaCl, 0.05% Tween-20, […]; conditions: protein: recombinant; tags: His6-SUMO cleaved; blunt
FimT Pa = FimT Pa (Pseudomonas aeruginosa PAO1, UniProt Q9HVN0 36-169); assay: EMSA; affinity same order of magnitude as FimT Lp; 50 mM Tris-HCl pH 7.2, 50 mM NaCl; […]; ITC 30 C; MST 50-150 mM NaCl, 0.05% Tween-20, […]; conditions: protein: recombinant; tags: His6-SUMO cleaved; blunt
FimT Xc = FimT Xc (Xanthomonas campestris pv. campestris …, UniProt Q8P7X0 39-183); assay: as above; conditions: protein: recombinant; tags: His6-SUMO cleaved; blunt
FimT Lp [2] = molecular target: T1, FimT Lp; assay: MST/TRIC; 50 mM NaCl; 50 mM Tris-HCl pH 7.2, 50 mM NaCl; […]; ITC 30 C; MST 50-150 mM NaCl, 0.05% Tween-20, […]; conditions: protein: recombinant; tags: His6-SUMO cleaved; label: 5'-FAM on one strand; blunt
FimT Lp [3] = molecular target: T1, FimT Lp; assay: ITC; 50 mM Tris-HCl pH 7.2, 50 mM NaCl; […]; ITC 30 C; MST 50-150 mM NaCl, 0.05% Tween-20, […]; conditions: protein: recombinant; tags: His6-SUMO cleaved; blunt
FimT Lp [4] = molecular target: T1, FimT Lp; assay: NMR titration; 50 mM NaCl; 50 mM Tris-HCl pH 7.2, 50 mM NaCl; […]; ITC 30 C; MST 50-150 mM NaCl, 0.05% Tween-20, […]; conditions: protein: recombinant; tags: His6-SUMO cleaved; blunt
FimT Lp [5] = molecular target: T1, FimT Lp; assay: EMSA; 50 mM Tris-HCl pH 7.2, 50 mM NaCl; […]; ITC 30 C; MST 50-150 mM NaCl, 0.05% Tween-20, […]; conditions: protein: recombinant; tags: His6-SUMO cleaved
FimT Lp [6] = molecular target: T1, FimT Lp; assay: ITC; 50 mM NaCl, 30 C; N 1.09; 50 mM Tris-HCl pH 7.2, 50 mM NaCl; […]; ITC 30 C; MST 50-150 mM NaCl, 0.05% Tween-20, […]; conditions: protein: recombinant; tags: His6-SUMO cleaved

B1: 30mer dsDNA (dsDNA)
DNA 1: TTAAATAGGCTTGGCAGGGTTAGGGTAGGG
DNA 2: CCCTACCCTAACCCTGCCAAGCCTATTTAA
FimU Lp
  binding result: no binding
PilA1 Lp
  binding result: no binding
PilA2 Lp
  binding result: no binding
FimT Lp [1]
  binding result: binds
FimT Pa
  binding result: binds
FimT Xc
  binding result: binds

B2: FAM-12mer dsDNA (dsDNA)
DNA 1: GTTCGCAACGAA
DNA 2: TTCGTTGCGAAC
FimT Lp [2]
  Kd: 6.3 ± 0.9 µM

B3: 12mer dsDNA (dsDNA)
DNA 1: GTTCGCAACGAA
DNA 2: TTCGTTGCGAAC
FimT Lp [3]
  Kd: 2.8 ± 0.2 µM
FimT Lp [4]
  Kd: ~8.1 µM

B4: 30mer ssDNA (ssDNA)
DNA: B1 DNA 1
FimT Lp [5]
  binding result: binds

B5: 12mer ssDNA (ssDNA)
DNA: GTTCGCAACGAA
FimT Lp [6]
  Kd: 7 ± 0.3 µM
